Results on 19 variants are retold here after the RNAGym collection of RNA variant scans (doi:10.1073/pnas.2313332121).

Fewer inactive variants are shown than the library holds.

To fix the notation:
B1: TPR 5TU (parent)
chain: GGAUCUUCUCGAUCUAACAAAAAAGACAAAUCUGCCACAAAGCUUGAGAGCAUCUUCGGAUGCAGAGGCGGCAGCCUUCGGUGGCGCGAUAGCGCCAACGUUCUCAACUAUGACACGCAAAACGCGUGCUCCGUUGAAUGGAGUUUAUCAUG

In the series the parent is B1. Put plainly: polymerase ribozyme fitness, log enrichment relative to wild type (log ratio); higher = more active; in vitro selection for triplet polymerase activity. In outline: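 For each subunit of a heterodimeric triplet polymerase ribozyme, a mutant library was built by PCR and transcribed, then taken through a single in vitro selection round in triplicate. Selection involved annealing to a biotinylated primer, the partner subunit and triplets, incubation frozen at −7 °C, gel excision of extended constructs, capture on streptavidin beads and RT-PCR. Genotypes were retained after Illumina sequencing of inputs and outputs only with ≥10 input reads and ≥1 read in each output. Fitness is defined as the logarithm of a genotype's enrichment relative to wild-type enrichment, using inverse-variance-weighted averages across replicates, with the logarithm taken to base 2.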
In the case of GGAUCUUCUCGAUCUAACAAAAAAGACAAAUCUGCCACAGAGCUUGAGAGCAUCUUCGGAUGCAGAGGCGGCAGCCUUCGGUGCCGCGAUAGCGCCAACGUUCUCAACGAUGACACGCUAAACGCGUGCUCCGUUGAAAUGAGUUUAUCAUU [A40G G84C U109G A119U U139A G140U G152U], the “polymerase ribozyme fitness (log ratio)” value was at most -4.2. GGAUCUUCUCGAUCUAACAAAAAAGACAAAUCUGCCACAUAGCUUGAGAGCAUCUUCGGAUGCAGAGGCGGCAGCCUUCGGUGGCGCGAUAGCGCCAACGUUCUCAACUAUGCCACGCAAAACGCGUGCUCCGUUGAAUGGAGUUUAUCAUG [A40U A113C]: the “polymerase ribozyme fitness (log ratio)” value is -3.79. As for GGAUCUUCUCGAUCUAACAAAAAAGACAAAUCUGCCACAUUGCUUGAGAGCAUCUUUGGAUGCAGAGGCGGCAGCCUUCGGUGGCGCGAUAGCGCCAACGUUCUCAAUUAUGACACGCAAAACGCGUGCUCCGUUGAAUGGAUUUUAUCAUG [A40U A41U C57U C108U G143U], the figure is at most -4.2; as for GGAUCUUCUCGAUCUAACAAAAAAGACAAAUCUGCCACAGAGCUAGAGAGCAUCGUCGGAUGCAGAGCCGGCAGCCUUCGGUGGCGCGAUCGCGCCAACGUGCUCAACUAUGACACGCAAAACGCAUGCUCCGUUGAAUGGAGUUUAUGAUG [A40G U45A U55G G68C A91C U102G G126A C149G], at most -4.2; as for GGAUCUUCUCGAUCUAACAAAAAAGACAAAUCUGCCACAGAGCUUGAGAGCAUCUUCGGAUGCAGAGGCGGCAGCCUUCGGUGGCUCGAUAGCGCCAACGUUCUCAACUAUGACACGCAGAACGCGUGCUCCGUUGAAUGGAGUUUAUCAUG [A40G G86U A120G], -3.99. As for GGAUCUUCUCGAUCUAACAAAAAAGACAAAUCUGCCACAUAGCUUGAGAGGAUCUUCGGAUGCAGAGGCGGCAGCCUUCGGUGGCGCGAUAGCGCCAACGUUCUCAACUAUGACACGCAAAACGCGUGCUCCGUUGAAUGGAGUUUAUCAUG [A40U C51G], the figure is -1.26. For the variant GGAUCUUCUCGAUCUAACAAAAAAGACAAAUCUGCCACAUAGCUUGAGAGAAUCUUCGGAUGCAGAGGCGGCAGCCUUCGGUGGCGCGAUAGCGCCAACGUUCUCAACUAUGACACGCAAAACGCGUGCUCCGUUGAAUGGAGUUUAUCAUG [A40U C51A], the “polymerase ribozyme fitness (log ratio)” value was -0.707. As for GGAUCUUCUCGAUCUAACAAAAAAGACAAAUCUGCCACAGAGCUUGAGAGCAUCUUCGGAUGCAGAGGCGGCAGCCUUCGGUGGCGCGAUAGCGCCAACGUUCUCAACGAUGACACGCAAAACGCGUGCUCCGUUGAAUGGAGUUUAUCAUG [A40G U109G], the figure is -3.14. Under GGAUCUUCUCGAUCUAACAAAAAAGACAAAUCUGCCACAGAGCUUGAGAGCAUCUACGGAUGCAGAGGCGGCAGCCUUCGGUGGCGCGAUAGCGCCAAUGUUCUCAACUAUGACACGCAAAACGCGUGCUCCGUUGAAUGGAGUUUAUCAUG [A40G U56A C99U] stands -2.66. Regarding GGAUCUUCUCGAUCUAACAAAAAAGACAAAUCUGCCACAUAGCUUGAGAGCAUCUUCGGAUGCGGAGGCGGCAGUCUUCGGUGGCGCGAUAGCGCCGACGUUCUCAACUAUGACACGCAAAACGCGUGCUCCGUUGAAUGGAGUUUAUCAUG [A40U A64G C75U A97G], the “polymerase ribozyme fitness (log ratio)” value was at most -4.2. Under GGAUCUUCUCGAUCUAACAAAAAAGACAAAUCUGCCACAGAGCUUGAGAGCAUCUUCGAAUGCAGAGUCGGCAGCCUUCGGUGGCGCGAUAGCGCCAACGUUCUCAACUAUGACACGCAAAACGCGUGCUCCGUUGAAUGGAGUUUAUCAUG [A40G G59A G68U] stands at most -4.2; under GGAUCUUCUCGAUCUAACAAAAAAGACAAAUCUGCCACAUAGCUUGAGAGCAUCUUAGGAUGCAGAGGCGGCUGCCUUCGGUGGCGCGAUAGCGUCAACGUUCUCAACUAUGACACGCAAAACGCGUGCUCCGUGGAAUGGAGUUUAUGAUG [A40U C57A A73U C95U U135G C149G], at most -4.2; under GGAUCUUCUCGAUCUAACAAAAAAGACAAAUCUGCCACAGAGCUUGAGAGCAUCUUCGGAUGCAGAGGCGUCAGCCUUCGGUGGCUCGAUAGCGCCAACGUUCUCAACUAUGACACGCAAAACGCGUGCUCCGUUGAAUGGAGUUUAUCAUG [A40G G71U G86U], at most -4.2. As for GGAUCUUCUCGAUCUAACAAAAAAGACAAAUCUGCCACAUAGCUUGAGAGCAUCUUCGGAUGCAGAGGCGGCAGCCUUCGGUGGCGCGAUAGCGCUAACGUUCUCAACUAUGACACGUAAAACGCGUGCUCCGUUGAAUGGAGUUUAUCAUG [A40U C96U C118U], the figure is -0.191; as for GGAUCUUCUCGAUCUAACAAAAAAGACAAAUCUGCCACAGAGCUUGAGAGCAUCUUCGGACGCAGAGGCGGCAGCCUUCGGUGGCGCGAUAUCGCCAACGUUCUCAACUAUGACACGCAAAACGCGUGCUCCGUUGAAUGGAGUGUAUCAUG [A40G U61C G92U U145G], at most -4.2. For the variant GGAUCUUCUCGAUCUAACAAAAAAGACAAAUCUGCCACAUCGCUUGAGAGCAUCUUCGGGUGCAGAGGCGGCAGCCUUCGGUGGCGCGAUAGCGCCAUCGUUCUCAACUAUGACACGCAAAACGCGUGCUCCGUUGAAUGGAGUUUAUCUUG [A40U A41C A60G A98U A150U], the “polymerase ribozyme fitness (log ratio)” value amounted to 0.591. Consider GGAUCUUCUCGAUCUAACAAAAAAGACAAAUCUGCCACAUAGCUUGAGAGCAUGUUCGGAUGCAGAGGCGGCAGCCUUCGGUGGCGCGAUAGCGCCAACGUUCUCAACUAUGACACGAAAAACGCGUGCUCCGUUGAAUGGAGUUUAUCAUG [A40U C54G C118A], for which the “polymerase ribozyme fitness (log ratio)” value is -1.63. As for GGAUCUUCUCGAUCUAACAAAAAAGACAAAUCUGCCACAUAGCUUGAGAGCAUCUUCGGAUGCAGAGGCGGCAGCCUUCGGUGGCGGGAUAGCGCCAACGUUCUCAACUAUGACACGCAAAACGCGUGCUCCUUUGAAUGGAGUUUAUCAUG [A40U C87G G133U], the figure is at most -4.2; as for GGAUCUUCUCGAUCUAACAAAAAAGACAAAUCUGCCACAUAGCUUGAGAGCAUCUUCGGAUGCAGAGGCGGCAGCCUUCGGUGGCGCGAUAGCGCCAACGUUCUCAACUAUGACACGCAAAACGCGUGCUCCGUUGAAUGGAGUUUGUCAUG [A40U A147G], -3.6.
